Legend:
[1] = biological target: SDC1_(37HEP): murine syndecan-1 ectodomain with heparin conjugated at residue 37 (mouse) (UniProt P18828); assay: ELISA
[2] = biological target: SDC1_(47HEP): murine syndecan-1 ectodomain with heparin conjugated at residue 47 (mouse) (UniProt P18828); assay: ELISA
[3] = biological target: SDC1_(37): deglycosylated murine syndecan-1 ectodomain with p-propargyltyrosine at residue 37 (mouse) (UniProt P18828); assay: ELISA
[4] = biological target: SDC1_(47HS): murine syndecan-1 ectodomain with heparan sulfate conjugated at residue 47 (mouse) (UniProt P18828); assay: ELISA
[5] = biological target: Vitronectin (VN), biotinylated (UniProt P04004); assay: AlphaScreen or HTRF
[6] = biological target: FGFR1, biotinylated (UniProt P11362); assay: AlphaScreen or HTRF
[7] = biological target: Recombinant human FGF2 (fibroblast growth factor-2), biotinylated (human); assay: AlphaScreen or HTRF

Substance	EC50 [1] [nM]	EC50 [2] [nM]	EC50 [3] [nM]	EC50 [4] [nM]	EC50 [5] [nM]	EC50 [6] [nM]	EC50 of ternary complex formation with soluble non-tagged FGF2 [6] [nM]	EC50 [7] [nM]
Recombinant human αvβ3 integrin (from UniProt P06756-1 31-992; P05106 27-718) (complex)	10	5	100	40				
SDC1_(37): deglycosylated murine syndecan-1 ectodomain with p-propargyltyrosine at residue 37 (from UniProt P18828 23-255) (domain or fragment)					> 100	> 20	> 20	> 100
SDC1_(37HEP): murine syndecan-1 ectodomain with heparin conjugated at residue 37 (from UniProt P18828 23-255) (domain or fragment)					1	0.3	0.007	0.4
SDC1_(47HEP): murine syndecan-1 ectodomain with heparin conjugated at residue 47 (from UniProt P18828 23-255) (domain or fragment)						0.2	0.007	0.3

Source: article PMC9205196
